Measurements from patent publication US20090149339A1 (published 2009).
Ends that are not written are not given here. * marks the point of attachment. Biotin = O=C1N[C@H]2[C@H](CS[C@H]2CCCCC(=O)*)N1

What was measured:
Experiment in all cases: A/G assays
[1] = target: T1, GST-CASK PDZ domain fusion protein (CASK AA495-584; PDZ domain 1 of 1) (mouse, UniProt P08515 1-218 = GST)
T1 construct: also called mCASK

[2] = target: GST-LIM PDZ domain fusion protein (Human LIM protein AA29-112; PDZ domain 1 of 1) (human, UniProt P08515 1-218 = GST)
Sequence of GST-LIM PDZ domain fusion protein (Human LIM protein AA29-112; PDZ domain 1 of 1) (P08515 1-218, tags or fused parts left off): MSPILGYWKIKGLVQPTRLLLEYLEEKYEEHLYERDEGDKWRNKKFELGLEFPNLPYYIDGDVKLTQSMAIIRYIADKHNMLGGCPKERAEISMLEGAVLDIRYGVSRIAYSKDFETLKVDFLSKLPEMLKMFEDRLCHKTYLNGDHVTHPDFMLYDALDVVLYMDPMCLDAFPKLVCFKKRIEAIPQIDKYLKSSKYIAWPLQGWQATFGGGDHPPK

[3] = target: GST-LIMK2 PDZ domain fusion protein (human LIM domain kinase 2 AA185-275; PDZ domain 1 of 1) (human, UniProt P08515 1-218 = GST)
Sequence of GST-LIMK2 PDZ domain fusion protein (human LIM domain kinase 2 AA185-275; PDZ domain 1 of 1) (P08515 1-218, tags or fused parts left off): as above

[4] = target: T2, GST-MPP2 PDZ domain fusion protein (maguk p55 subfamily member 2 (DLG2) AA185-273; PDZ domain 1 of 1) (UniProt P08515 1-218 = GST)
T2 construct: also called MMP2
T2 sequence (P08515 1-218, tags or fused parts left off): as above

[5] = target: GST-NOS1 PDZ domain fusion protein (human neuronal nitric oxide synthase; PDZ domain 1 of 1) (human, UniProt P08515 1-218 = GST)
Sequence of GST-NOS1 PDZ domain fusion protein (human neuronal nitric oxide synthase; PDZ domain 1 of 1) (P08515 1-218, tags or fused parts left off): as above

[6] = target: GST-AF6 PDZ domain fusion protein (af-6 protein AA985-1077; PDZ domain 1 of 1) (UniProt P08515 1-218 = GST)
Sequence of GST-AF6 PDZ domain fusion protein (af-6 protein AA985-1077; PDZ domain 1 of 1) (P08515 1-218, tags or fused parts left off): as above

[7] = target: GST-PTN-4 PDZ domain fusion protein (protein-tyrosine phosphatase meg1 AA774-862; PDZ domain 1 of 1) (UniProt P08515 1-218 = GST)
[8] = target: GST-prIL16 PDZ domain fusion protein (putative interleukin 16 precursor AA170-383; PDZ domains 1-2 of 2) (UniProt P08515 1-218 = GST)
Sequence of GST-prIL16 PDZ domain fusion protein (putative interleukin 16 precursor AA170-383; PDZ domains 1-2 of 2) (P08515 1-218, tags or fused parts left off): as above

[9] = target: T3, GST-41.8 kD PDZ domain fusion protein (hypothetical 41.8 kD protein AA4-85; PDZ domain 1 of 1) (UniProt P08515 1-218 = GST)
T3 construct: also called hypoth
T3 sequence (P08515 1-218, tags or fused parts left off): as above

[10] = target: T4, GST-KIAA0559 PDZ domain fusion protein (KIAA0559 AA766-870; PDZ1 of 1) (UniProt P08515 1-218 = GST)
T4 construct: also called K559
T4 sequence (P08515 1-218, tags or fused parts left off): as above

[11] = target: GST-MPP1 PDZ domain fusion protein (55 Kd erythrocyte membrane protein AA101-186; PDZ domain 1 of 1) (UniProt P08515 1-218 = GST)
Sequence of GST-MPP1 PDZ domain fusion protein (55 Kd erythrocyte membrane protein AA101-186; PDZ domain 1 of 1) (P08515 1-218, tags or fused parts left off): as above

[12] = target: T5, GST-RGS12 PDZ domain fusion protein (human regulator of G-protein signalling 12 AA35-103; PDZ domain 1 of 1) (human, UniProt P08515 1-218 = GST)
T5 construct: also called RSG12
T5 sequence (P08515 1-218, tags or fused parts left off): as above

[13] = target: T6, GST-KIAA0316 PDZ domain fusion protein (KIAA0316 AA197-284; PDZ domain 1 of 1) (UniProt P08515 1-218 = GST)
T6 construct: also called K316

[14] = target: GST-DVL1 PDZ domain fusion protein (human dishevelled segment polarity protein homolog AA248-340); PDZ domain … (human, UniProt P08515 1-218 = GST)
Sequence of GST-DVL1 PDZ domain fusion protein (human dishevelled segment polarity protein homolog AA248-340); PDZ domain … (P08515 1-218, tags or fused parts left off): as above

[15] = target: T7, GST-TAX40 PDZ domain fusion protein (human tax interaction protein 40 AA35-137; PDZ domain 1 of 1) (human, UniProt P08515 1-218 = GST)
T7 construct: also called TX 40
T7 sequence (P08515 1-218, tags or fused parts left off): as above

[16] = target: GST-TIAM1 PDZ domain fusion protein (T-lymphoma invasion and metastasis inducing protein 1 AA1001-1088); PDZ 1 … (UniProt P08515 1-218 = GST)
Sequence of GST-TIAM1 PDZ domain fusion protein (T-lymphoma invasion and metastasis inducing protein 1 AA1001-1088); PDZ 1 … (P08515 1-218, tags or fused parts left off): as above

[17] = target: T8, GST-KIAA0303 PDZ domain fusion protein (KIAA0303 AA652-742; PDZ domain 1 of 1) (UniProt P08515 1-218 = GST)
T8 construct: also called K303
T8 sequence (P08515 1-218, tags or fused parts left off): as above

[18] = target: T9, GST-CBP PDZ domain fusion protein (Cytohesin binding protein HE AA85-175; PDZ domain 1 of 1) (UniProt P08515 1-218 = GST)
T9 construct: also called Prot

[19] = target: GST-MINT3 PDZ domain fusion protein (human MINT3 AA11-52; PDZ domain 1 of 1) (human, UniProt P08515 1-218 = GST)
Sequence of GST-MINT3 PDZ domain fusion protein (human MINT3 AA11-52; PDZ domain 1 of 1) (P08515 1-218, tags or fused parts left off): as above

[20] = target: T10, GST-TAX2 PDZ domain fusion protein (human tax interaction protein 2 AA54-140; PDZ domain 1 of 1) (human, UniProt P08515 1-218 = GST)
T10 construct: also called TX 2
T10 sequence (P08515 1-218, tags or fused parts left off): as above

[21] = target: GST-PSD95 PDZ domain fusion protein (human post-synaptic density protein 95 AA387-724; PDZ domains 1-3 of 3) (human, UniProt P08515 1-218 = GST)
Sequence of GST-PSD95 PDZ domain fusion protein (human post-synaptic density protein 95 AA387-724; PDZ domains 1-3 of 3) (P08515 1-218, tags or fused parts left off): as above

[22] = target: T11, GST-NeDLG PDZ domain fusion protein (presynaptic protein sao102, neuroendocrine-dlg; PDZ domains 1-2 of 3) (UniProt P08515 1-218 = GST)
T11 construct: also called NeDLG1
T11 sequence (P08515 1-218, tags or fused parts left off): as above

[23] = target: T12, GST-TAX33 PDZ domain fusion protein (tax interaction protein 33 AA73-162; PDZ domain 1 of 1) (UniProt P08515 1-218 = GST)
T12 construct: also called TX33

[24] = target: T13, GST-SYN1a PDZ domain fusion protein (alpha1-syntrophin AA96-189; PDZ domain 1 of 1) (UniProt P08515 1-218 = GST)
T13 construct: also called SYN 1 alpha; SYNTR 1 alpha
T13 sequence (P08515 1-218, tags or fused parts left off): as above

[25] = target: T14, GST-TAX43 PDZ domain fusion protein (human tax interaction protein 43 AA15-85; PDZ domain 1 of 1) (human, UniProt P08515 1-218 = GST)
T14 construct: also called TX 43
T14 sequence (P08515 1-218, tags or fused parts left off): as above

Measured: binding result

T1 sequence (P08515 1-218, tags or fused parts left off): as above

B1: CC CKR-3 C-terminal PL peptide AA43L, biotinylated (peptide)
peptide: Biotin-LERTSSVSPSTAEPELSIVF
no binding: all assays above

B2: CD148 C-terminal PL peptide AA55L (ends KTIA), biotinylated (peptide)
peptide: Biotin-TIYENLAPVTTFGKTIA
no binding: all assays above

B3: CC CKR-2 C-terminal PL peptide AA42L, biotinylated (peptide)
peptide: Biotin-GKGKSIGRAPEASLQDKEGA
no binding: all assays above

B4: CLASP-4 C-terminal PL peptide AA3L-V, biotinylated (peptide)
peptide: Biotin-CAISGTSSDRGYGSPRYAEV
not listed: [6] | [9] | [21] | [22]
no binding: all other assays above

B5: LPAP C-terminal PL peptide AA30L, biotinylated (peptide)
peptide: Biotin-AWDDSARAAGGQGLHVTAL
no binding: all assays above

B6: CD5 C-terminal PL peptide AA49L, biotinylated (peptide)
peptide: Biotin-SMQPDNSSDSDYDLHGAQRL
no binding: all assays above
